The target of the assay is STAT3 (127-711)-His6 I568F (HIES mutant) (human) (UniProt P40763). The experiment in a line: ITC.
Chain of STAT3 (127-711)-His6 I568F (HIES mutant) (human) (P40763 127-711 I568F): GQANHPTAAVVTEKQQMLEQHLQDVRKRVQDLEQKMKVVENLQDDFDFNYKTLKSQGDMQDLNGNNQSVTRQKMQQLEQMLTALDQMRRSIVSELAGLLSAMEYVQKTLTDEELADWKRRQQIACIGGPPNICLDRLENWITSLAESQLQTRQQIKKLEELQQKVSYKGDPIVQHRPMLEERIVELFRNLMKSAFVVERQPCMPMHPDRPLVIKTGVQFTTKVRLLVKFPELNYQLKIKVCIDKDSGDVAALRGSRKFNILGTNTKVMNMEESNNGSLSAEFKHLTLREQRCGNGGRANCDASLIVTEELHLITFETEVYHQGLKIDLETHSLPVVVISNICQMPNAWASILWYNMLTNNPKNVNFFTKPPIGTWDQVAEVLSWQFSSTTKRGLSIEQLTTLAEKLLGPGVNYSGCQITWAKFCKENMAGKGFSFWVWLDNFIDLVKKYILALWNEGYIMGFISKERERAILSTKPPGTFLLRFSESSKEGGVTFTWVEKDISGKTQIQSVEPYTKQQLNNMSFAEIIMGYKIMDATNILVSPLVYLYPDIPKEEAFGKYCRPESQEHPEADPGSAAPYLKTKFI

“phosphotyrosine peptide derived from gp130 (pY904)” registered a fold reduction in binding affinity against WT STAT3 of 5 fold.

Values taken from article PMC4767637.
